Molecular target: the molecule itself
Experiment: crystal structure

B1: WlbA from Pseudomonas aeruginosa (enzyme)
chain: MASKNFALIGAAGYIAPRHMRAIKDTGNCLVSAYDINDSVGIIDSISPQSEFFTEFEFFLDHASNLKRDSATALDYVSICSPNYLHYPHIAAGLRLGCDVICEKPLVPTPEMLDQLAVIERETDKRLYNILQLRHHQAIIALKDKVAREKSPHKYEVDLTYITSRGNWYLKSWKGDPRKSFGVATNIGVHFYDMLHFIFGKLQRNVVHFTSEYKAAGYLEYEQARVRWFLSVDANDLPESVKGKKPTYRSITVNGEEMEFSEGFTDLHTTSYEEILAGRGYGIDDARHCVETVNTIRSAVIVPASDNEGHPFVAALAR
stoichiometry N: 4
